Measurements: a protein production outcome set (Wang et al. 2014)

Assay: label from the status in PepcDB records

Row | Sequence | protein production
1 | MSSASSEAQRLARLALLQVVDTAAEPFFDALAAAAQAIAGTPIALVSLVDERRQWWKANIGLPGVSETPRELAFCTYTIQGDAVMEVRDAPADPRFHDNALVTDAPGIRYYAGAPIVLPDGLRMGTVCVIDQRPRALEPAQLQALQQLAKVAAEGLEQRRVMLEREAANAQLQQRLRESEAFLERTGRVAGVGGWEVDVASGTLIWSDQTCRLHDVPPGYRPSLTEAIGFYPLEARAVITEAVDACVRDGTSWDLELPLTSATGRRLWVHSTGSVEHVDGRKRLIGAVQDVTDRHRAVDALAASERKFRKMFQYSLGLICTHDMHGRLVSINPAAARSLGRSVEQMEGRSLVEFVRPERHAALRGYLSRMVLDGQDSGVIELVAGDGSLRHWQYHNVLDVESDATVVLAHAQDITNQYRQEKQLLEWSFTDPLTNCYNRRFLDELDKRDPAVRWGCIVVDLDKFKLVNDTHGHQRGDEVLVQMAWFLNQPLRTQDRLVRLGGDEFLVLLHQASQTQLDALKRDYMGASEDAPIRFTLGTALRQDGEALAAVVDRADHSLYSLRRARRGTGTSDQR | failed
2 | MPYLYLLLAIVSEVIGSAFLKSSDGFSKLYPTITTIISYLISFYFLSKTMQHLPLNIAYASWSGLGLVLTTIVSVLIFKEQINLISIISIILIIFGVVLLNTFGSSH | failed
3 | MRYVLALFFYRVFLLLLTPIVLLVLLIRSFNHPEYRQRLFERLGFFPKPYKQGGIVVHAASVGEVIALKSFIEKLLVNYPDLPITITSFTPTGSAQITKLFGRRVQHGYLPLDIFPCTTLFLHRLKPKMIIFMETELWPNLIAQCDQHQIKLLLINGRLSKKSLTSYQKLSALMAPCLNRFDMILTQSQENLTHFLQLGAHQSRCVNSGNLKFDISVNEQVINKKAELAKLLFADDSQAKRTVWLVASTHEGDEAITLTAFKELLSQYPSLLLVLVPRHPERFEQVANLCLTKQLSLAKRSENTIINNEQVWLLDSLGELMAAFALSDIVTMGGSFSEVGGHNPLEPALFNKPVIVGHNMSNFNEIMQQLRQENAIIELTNNTPTNESSAQLVNEVSALLQQPTRQKTLGENALKVVLKNQGASEKTLAQVVNLLPTRVNITSTTPLGDNS | failed
4 | MLLYMRFTENFERAKKEALMSLEIALRKGEVDEDIIPLLKKINSIENYFTTSSCSGRISVMEMPHFGDKVNAKWLGKWHREVSLYEVLEAIKKHRSGQLWFLVRSPILHVGAKTLEDAVKLVNLAVSCGFKYSNIKSISNKKLIVEIRSTERMDVLLGENGEIFVGEEYLNKIVEIANDQMRRFKEKLKRLESKINALNR | not failed
5 | MQIVQIARPGSMKGWIRKAVARYAHATGRGGKFYRRFCNPSGLEWGAYLARWGNFHSVGSNFYVNTGCKFLDPSLVRIGNSVGLSDCTLIGHDGVVLLIEHRFGKHLDSVGFIDIKDNCFIGHGAIVMPRVTIGPESIVAAGAVVTKDVPPGTVYGGNPAEFICTTEQLIKRVEARCEAYPWIDLVKQRNGAYDPEVEPLLMAQRRQYFFGDSLEHHHHHH | failed
6 | MPGRKRKLAAKTAELAPEAGEGSESTSLVGSADASASTAAGVAHTEQQEMPSGGLHESFLESIPPAASFLEELAWVESLASPSYVAYLCQMRRFDDVVAQRRLTTLQRWRQDPAYRQHVSQPIALFFLEQLCSAEFREALRHPAVAALYERQVDLYRRCYGNLLNTGESRVLR | not failed
7 | MRCPGCGAAIQFDDPKKPGYIPREVFEKRLEEGKEILCQRCFRMKHYGKLEPVEFDWDFKNQLKSYLGGFDVVVWVIDIFDFEGTYREDIAEILKGKRVIYVINKIDLLPRAVTVKEIKEWVKKRIKTKNTDDIRIVSAEKNFGLTSLVKYLSRLTDKALVVGVTNVGKSSLLNKICTHENTISPFPGTTLGILKRKVKEANLYLYDTPGIMTSDRILDLLDPECQKRVLPREELSRKTFKPDNGRTIFMGGLCRFDIHFETEKNPIFLLFSSKEVTFHETRRERADELMRNRLGDLLIPPCSKTKFENFKWKRETFTLKEGEELAVAGLGWMSVRRGPFTVEVTVPDSVKLVVREALVNPKRLEHHHHHH | not failed
8 | MQSRSDGSWVLTLSRRLDAPSGEFAGVVLVTLQLKYFQNYYSTFEVGPHGTIGMTNDDGIVMVRRPDKQGVIGTSIAGTSIYVTMRARKHGTATYRSPIDRVERISSFAPARPYPLTVLTGFSVDDALANWRETARQRIVVAALGCTLLLGVGIWLDLQLRRMHRNEAKLSTEAWVDALTGIANRRAFDHRLSRALQDAVRLEAPLSVLMIDVDHFKLYNDTYGHVNGDACLRLIAGAIAGCSRRSEDLAARYGGEEFGMILPHTDAAGALRLADAVRNAVAELGLMHLSSPTSAHVTVSIGAATFEPGEAPLSPNAIVHDADSALYRAKQKGRNRTSA | failed
9 | MTVDEWRLLDVSTAFGSGENSVPDFGESADDDAVVVWLVKGEEAVEKLSEIVFGVNLVLENHLKHGLSEI | failed
10 | MLLSFFLINSNGEVIIEKSWKTEHTRRVCDLFWQEILKVSSPEELAPLLHFPKFTIVHIYSCGVFLVATVRKTLQSTFALELLHHLVDTFVDYFGEFNEHAIKENFVTVYEIIEEVLDHGFPFTVDIASLKELVPPPSLLSRVLGSVTGSSLSLKDISDWNSRKKVSWRNPNIRYAHNEIFVDIVEEVSVVLNSKGQCIHSGISGSIVVNCRLSGMPELALHLNESSIAKHSFVHPCVRYGRFIREGIISFVPPDGVFQLLKYQTWKAPYIPVTLEPQYSVDKERKHGRLQLTLDIRGCGGKPCEEMMISIPFHHATNITNLNVTVGTVRYDSQIQVCPI | failed
11 | MGEVKDLGMADHGGFDLKIGARVVLEDVKLGDSIAVNGTCLTVTEFNAEEFTVGLAPETLRKTSLEELKKGSPVNLERALQPVSRMGGHVVQGHVDGTGVIESMEVEGDSLWVKVKADKGLLKYIVPKGFVAVDGTSLTVVDVFDEESCFNFMMIAYTQQNVVIPTKKIGQKVNLEVDIMGKYVERLLTSGGFSKGN | failed
12 | MLVLILSSGVSVAIATETNDLSIAAVLISPSDVVFAKEANTIVVYGITNSGTENLTNITVDVYASDVSGTVPVNTETISSLAGGGTTTIFITDPTIRDLQGSTVTYTAVIDPDNLIPETNEANNNRSSAAVPVRYNGYKGKRYWEGASDITTKHTYDFNGDVSSSSQPSTSYRSQGAWSNGRTETWGGSVPNPDLPSGSTIEQALLYVAYNWDETPGGYPWWNVSFNNVIIDYGNISTGNGILYTDMSNFGLYADYEYGLVVYDVTNLYNSTDYNGLKMYPYNSTFADLTALYPSTLVIIYQNPNMTRKQIFINEECDELGVSESTYGTTPEEATAYAPFTGMSIDVSNVSNATLYSFAGSAGPDEGNLLFNGNTVATNAWHGDAYTASASVFDVKNYINSTGNEAGIQGTVSGGMDVLQQILVVEYVESVPSALDANLTANVTSGTAPLTVQFTDLSEGNVTNWLWDFGDNTNSTSQNVSHTYNSPGTYTVNLTVTGPEGSDSEVKTDFITVSDSNVSAPVAAFTATPLVGTAPLQVAFTDQSTNSPTEWKWEYNNGSGWVEFSNETNASYSFATAVPYDIQLTVSNSGGSDDETKLHYISVGNVREPLNTVQSGTVSGDLYISSPTTWPATEVNQTFTLPAAAVGNIQWAKLYVNTYSGSAANTYALSSTVKLDGDGDSTYESTLGTETMDIASLTNGASFPLNDHVNKVYSDYEAQYDVTSLISAANPAINVKSEAISGKNFDGRIKGVTLVVAYNNTSSTDQTYYWVNHGGDWSSPANGNTIFDTSGLSSGWVSAESKIRYFSYSDANYTFNGVAKTGSTPSNYSGLNTWDVTDNITAGQSSTLAYSKGSGSYKTTLATLKVKYETPGFSNKVTLGDTSPVSPTLASLNGRLYLAWKGDGNNNLNVMYSADNGMTFGNKYTSSETSPESPALCVHNNSLYIAWKGNGSNYLNVAQVTMNGDNITDFSNKVTLGDTSPVSPALASLNGRLYLAWKGDGNNNLNVMYSADNGMTFGNKYTSSETSPESPALCVHNNSLYIAWKGNGNNYLNVAQVTMNGDNITDFSNKVTLGDTSPVSPALASLNGRLYLAWKGDGNNNLNVMYSADNGMTFGNKYTSPETSPESPALCVHNNSLYIAWKGDGNNNLNVAQVI | failed
13 | MSEINYSTVQYYLVLILIFIYLSLFVLEKKWPLRKATRPLLPRLAINFTFTLLVYVIASLFISPLAKATVLFTFSHDFGLLSMLPFNQWVVFILGFLLMDLSFYYWHALNHKLPLLWRFHVVHHADPDLDVSTAMRFHCVEIMYSSLFRLVQLGLIGVSPLLFFCYEFFFQAHTFFQHSNIKLPFRFERLINKIIVTPRMHGIHHSNYLNETNSNYGVVFSFWDRLHQTIKLDIPQQAIIIGVPGYSKPSDNSLIRLLLMPIKAQRHYWQIKKDFHFSRKSKTSDKKVRTLCE | failed
14 | MLIKLRKQKQDENISFFSHFFAVFTGIFFVMTVIIIQVMHFGIYSSVDNSLKIATENVNDYVNMTLSHNNPITEAENGDASFKVKSNGQMAANTDTILYDKKHNVINNVNAFSSLYHIRPKLKDIGDIVEQEAKNIYGQTEKYRTVTVKVNNDFYPQIKFATIVINTTQLEEANTRYVTIIISVMIVFWLISVIASVYLAKWSQKPILENYEKQKSFVENASHELRTPLAVLQNRLESLFRKPEATILDSSESIASSLEEVRNMRMLTANLLNLARRDDGIKPEITEIQPRFFDDTFKNYEMIARENGKKLHIINKVNRQIKTDKTLLKQLMTILFDNAVKYTDNDGEIWLDVKTTDRSLIFSVADNGQGISDEDKKKIFDRFYRVDKARTRQKGGFGLGLSLAKQITDSLKGSIIVKDKKPQGVMFEARLLANK | failed
15 | MNNPKPCEWKSNELSRGYIADYKAFNFVDGEGVRCSLYVSGCPFHCEGCYNKAAQSFKYGKPYTKELEDDILKDIGHESVQGLTLLGGEPFLNTATCLSIVKRIRATYGETKDIWSWTGYTWDEMMQETADKLELLSLIDVLVDGRFEQKLFDPNLAFRGSSNQRIIDVQKSLAAGEVVLYELLEHHHHHH | failed
16 | MIKVEKEVSNDYIIKGFKHFTQLATEYFQGHPDCNAARKRMRDTIDANLQLKAELTAASYTEHTTLLSPKMQQIIWAHWGPPIISLSENHANELEHHHHHH | failed
17 | MIMARTSNIFARVEPEVKEQAEQVLEQLGIPMSSAVSMFLKQVVLQRGIPFEMKLPKDTPPSYSSLTKEQFNAEIEKGMLDIEAGRTYPMKSVEEEMKRDYGLLEHHHHHH | not failed
18 | MAKITVGTENQAPIEIYYEDHGTGKPVVLIHGWPLSGRSWEYQVPALVEAGYRVITYDRRGFGKSSQPWEGYEYDTFTSDLHQLLEQLELQNVTLVGFSMGGGEVARYISTYGTDRIEKVVFAGAVPPYLYKSEDHPEGALDDATIETFKSGVINDRLAFLDEFTKGFFAAGDRTDLVSESFRLYNWDIAAGASPKGTLDCITAFSKTDFRKDLEKFNIPTLIIHGDSDATVPFEYSGKLTHEAIPNSKVALIKGGPHGLNATHAKEFNEALLLFLKD | not failed
19 | MFSPEGPTRRELAVQALSSVERGYDLLAPKFDHTPYRTPDRVLDAVARGLEPLGPFAAGLDLCCGTGAGVEVLARVCQRDVTGVDFSAGMLEVARRRTLPPGPEVSWVRADARALPFGPAFDLVVSFGAFGHFLPRELPGLFGQVRSVLRPDGCFAFPVAAPPRPGSPGYWTLLGFDAAMRVRNALWRPPFVMYYRTFRLGAVGRELSRAGFRTDLHALPEFGRRPDGSPRARLVVARRLP | failed
20 | MPTLFDDPLHQLPRPPRRVAAGVVHLPNFLGLAEQKALVAQARDLAREVVGTPLAMVRPKLKSGQMSVHMLHLGKYWASNPYRYVDVVDGFPVPPLPDSFVDLAHRALLSAGSLSNSLQSWSEAYRAEAALVNYYSPDASMGMHQDANEESEAPVISLSIGDTGIFRLGGTLNRNKPWTDIPLMSGDLIVFGGANRQAFHGIPSIEANTAPAGCGLKEGRINITIRQLALLEHHHHHH | not failed
